In PMC5541836:

Molecular target: Wild-type spindle pole bodies (SPBs) purified from budding yeast (strain BGY72-8A: Spc97-TAP, Spc42-mCherry) (budding yeast) (UniProt P38863)
Experiment: laser trap rupture force

Sequence of Microtubules assembled from bovine brain tubulin (Q6B856 whole entry, looked up): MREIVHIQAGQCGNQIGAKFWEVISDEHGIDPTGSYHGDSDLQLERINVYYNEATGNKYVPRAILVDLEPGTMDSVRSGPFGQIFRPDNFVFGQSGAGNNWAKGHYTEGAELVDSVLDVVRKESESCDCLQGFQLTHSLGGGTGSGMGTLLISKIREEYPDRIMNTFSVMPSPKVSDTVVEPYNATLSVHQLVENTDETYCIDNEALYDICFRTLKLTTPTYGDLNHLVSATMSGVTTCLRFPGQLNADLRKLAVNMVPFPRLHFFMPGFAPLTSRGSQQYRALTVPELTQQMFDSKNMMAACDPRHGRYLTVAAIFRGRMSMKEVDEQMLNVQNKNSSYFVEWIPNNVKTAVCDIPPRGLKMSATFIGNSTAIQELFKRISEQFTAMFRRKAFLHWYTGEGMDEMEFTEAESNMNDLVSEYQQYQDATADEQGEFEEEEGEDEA
Sequence of Wild-type spindle pole bodies (SPBs) purified from budding yeast (strain BGY72-8A: Spc97-TAP, Spc42-mCherry) (budding yeast) (P38863 whole entry, looked up): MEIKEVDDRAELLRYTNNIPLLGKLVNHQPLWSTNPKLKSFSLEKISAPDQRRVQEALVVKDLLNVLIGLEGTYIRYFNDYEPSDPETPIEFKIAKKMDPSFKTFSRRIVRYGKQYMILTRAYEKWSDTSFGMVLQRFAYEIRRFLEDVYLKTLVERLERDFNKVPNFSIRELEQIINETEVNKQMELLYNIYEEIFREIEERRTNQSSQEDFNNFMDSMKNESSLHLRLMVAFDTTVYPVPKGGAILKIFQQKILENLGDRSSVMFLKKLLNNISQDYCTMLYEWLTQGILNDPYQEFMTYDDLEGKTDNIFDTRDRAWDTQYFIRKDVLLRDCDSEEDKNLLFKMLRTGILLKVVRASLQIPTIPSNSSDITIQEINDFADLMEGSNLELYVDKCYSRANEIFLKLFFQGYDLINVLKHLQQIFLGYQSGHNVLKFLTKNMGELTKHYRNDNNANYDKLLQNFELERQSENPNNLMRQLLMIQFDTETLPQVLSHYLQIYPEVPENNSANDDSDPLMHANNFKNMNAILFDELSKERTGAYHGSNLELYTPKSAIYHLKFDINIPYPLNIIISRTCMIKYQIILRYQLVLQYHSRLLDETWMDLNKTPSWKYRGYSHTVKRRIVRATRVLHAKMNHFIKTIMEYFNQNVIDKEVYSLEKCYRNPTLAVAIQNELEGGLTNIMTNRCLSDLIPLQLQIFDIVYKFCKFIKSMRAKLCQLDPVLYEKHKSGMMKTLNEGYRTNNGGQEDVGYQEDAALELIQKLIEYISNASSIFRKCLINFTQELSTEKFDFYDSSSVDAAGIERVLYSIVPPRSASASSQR

raw mean rupture force: 45 pN
Substance: Microtubules assembled from bovine brain tubulin (from UniProt Q6B856 1-445) (complex)
